{
  "source": "patent US8540999B2",
  "about": "“Allergenic proteins and peptides from Japanese cedar pollen” (Merck Patent GmbH, priority 1991, dated 2013)",
  "molecules": {"B1": {"name": "purified native Cry j I: major allergen of Japanese cedar pollen, biochemically purified in the native form (protein)", "chain": "DNPIDSCWRGDSNWAQNRMKLADCAVGFGSSTMGGKGGDLYTVTNSDDDPVNPAPGTLRYGATRDRPLWIIFSGNMNIKLKMPMYIAGYKTFDGRGAQVYIGNGGPCVFIKRVSNVIIHGLYLYGCSTSVLGNVLINESFGVEPVHPQDGDALTLRTATNIWIDHNSFSNSSDGLVDVTLTSTGVTISNNLFFNHHKVMLLGHDDAYSDDKSMKVTVAFNQFGPNCGQRMPRARYGLVHVANNNYDPWTIYAIGGSSNPTILSEGNSFTAPNESYKKQVTIRIGCKTSSSCSNWVWQSTQDVFYNGAYFVSSGKYEGGNIYTKKEAFNVENGNATPQLTKNAGVLTCSLSKRC"}},
  "key": {"allergic patient IgE [1]": {"system": "allergic patient IgE", "experiment": "Competition ELISA, wells coated with Japanese cedar pollen SPE", "format": "binding, human", "protocol": "In the competition assay, ELISA wells were coated with Japanese cedar pollen SPE and then allergic patient IgE binding was measured in the presence of competing purified native Cry j I in solution. The source of allergic IgE in these assays was either the pool of plasma from 15 patients (denoted PHP) or seven individual plasma samples from patients with a Japanese cedar MAST score of 2.5 or greater. The competition assay using the pooled human plasma samples compares the competitive binding capacity of purified native Cry j I to Japanese cedar pollen SPE and an irrelevant allergen source, rye grass SPE. […] This assay was repeated with individual patients as a measure of the range of the IgE response within the allergic population."}, "allergic patient IgE [2]": {"system": "allergic patient IgE", "experiment": "Direct ELISA, IgE binding to rCry j I and Cry j I peptides (Example 8)", "design": "species or system human", "conditions": "PHP (15 patients), FIG. 15", "protocol": "The recombinant Cry j I protein (rCry j I), expressed in bacteria and then purified (as described in Example 5), has been examined for IgE reactivity. The first method applied to this examination was direct ELISA where wells were coated with the recombinant Cry j I and IgE binding was assayed on individual patients. FIG. 9 is the graphic representation of this direct ELISA.\nTo analyze IgE reactivity to selected Cry j I peptides a direct ELISA format was used. ELSIA wells were coated with 25 peptides derived from Cry j I and assayed for IgE binding. FIG. 15a and 15b are graphs of these binding results using PHP (15 patients) as the cedar pollen allergic IgE source. This pool of plasma was formulated for enrichment of IgE that could bind to denatured SPE (as determined by direct ELISA) and therefore increase the chance of reactivity toward the peptides."}, "patients' plasma IgE": {"system": "patients' plasma IgE", "experiment": "Direct binding assay of IgE to Cry j I, Cry j II and recombinant Cry j II (Example 18)", "design": "species or system human", "protocol": "Costar assay plates were coated with Cry j I or Cry j II at 2 μg/mL or recombinant Cry j II preparation at 10 μg/mL (approximately 20% pure) in a volume of 50 μL overnight at 4° C. The coating antigens were removed and the wells were blocked with 0.5% gelatin, PVP (polyvinyl pyrolidine) 1 mg/mL in PBS, 200 μL/well for 2 hours at room temperature. The anti-Cry j I monoclonal antibody, 4B11, was serially diluted in PBS-Tween 20 starting at a 1:1000 dilution. The human plasma were serially diluted in PBS-Tween at a starting dilution of 1:2. For this set 23 plasma samples from patients symptomatic for Japanese cedar pollen allergy chosen for IgE binding analysis. The first antibody incubation proceeded overnight at 4° C. Following three washes with PBS-Tween the second antibodies were added (biotinylated goat anti-mouse Ig or goat anti-human IgE both at 1:2000) and incubated for two hours at room temperature at 100 μL/well. After washing 3 times, […]. This solution was removed and streptavidin-HRPO diluted to 1:10,000, was added at 100 μL/well. The color was allowed to develop for 2-5 minutes. The reaction was stopped by the addition of 100 μL/well of 1M phosphoric acid. Plates were read on a Microplate IL310 Autoreader (Biotek Instruments, Winooski, Vt.) with a 450 nm filter. The absorbance levels of duplicate wells were averaged. A positive binding result, indicated by a plus sign is determined to be a reading of two-fold or greater above background (no first antibody) at the second dilution of plasma ([…])."}, "allergic patient IgE [3]": {"system": "allergic patient IgE", "experiment": "Allergic sera titration of purified subfractions of Cry j I (FIG. 3)", "format": "binding, human", "conditions": "pool of fifteen allergic patient plasma", "excerpt": "In summary, three Cry j I isoforms of different molecular weight were purified from pollen extract. The molecular weights estimated by SDS-PAGE ranged from 40-35 kD under both reducing and non-reducing conditions. The isoelectric point of these isoforms is approximately 9.5-8.6, with an average pI of 9.0. The N-terminal 20 amino acid sequence was the same in these 3 bands and was identical to previously published Cry j I sequence (Taniai et al, supra). The 3 isoforms are all recognized by monoclonal antibody CBF2 as shown in the allergic sera titration of different purified subfractions of Cry j I using a pool of fifteen allergic patient plasma. […] The difference in molecular weight and isoelectric point in these isoforms might in part be due to post-translational modification, e.g. glycosylation, phosphorylation or lipid content. The possibility that these different isoforms might be due to protease degradation cannot be ruled out at present even though it is unlikely due to the fact that four different protease inhibitors were used during extraction and purification. The other possibility could be due to polymorphism in the gene or alternate splicing in the mRNA though only one major form of Cry j I protein has been detected in cDNA cloning studies (see Example 4)."}, "IgE antibodies": {"system": "IgE antibodies", "conditions": "Sakaguchi (1990); cited from earlier work"}},
  "data": [
    {"molecule": "B1", "values": [
      {"measurement": "competition for IgE binding to coated Japanese cedar pollen SPE", "setting": "allergic patient IgE [1]; pooled human plasma (PHP), 15 patients, FIG. 6", "value": "competes very well"},
      {"measurement": "competition for IgE binding to coated Japanese cedar pollen SPE", "setting": "allergic patient IgE [1]; seven individual patients, FIG. 7", "value": "could be competed"},
      {"measurement": "IgE binding, direct ELISA", "setting": "allergic patient IgE [2]", "value": "only specific IgE detected"},
      {"measurement": "plasma IgE binding response", "setting": "patients' plasma IgE; patient #1034", "value": "no detectable binding"},
      {"measurement": "plasma IgE binding response", "setting": "patients' plasma IgE; patient plasma samples, FIGS. 31-33", "value": "variable response"},
      {"measurement": "IgE binding of purified isoforms", "setting": "allergic patient IgE [3]", "value": "bind allergic patient IgE"},
      {"measurement": "allergic patients with IgE that only reacted with this allergen", "setting": "IgE antibodies", "value": 29, "unit": "%"}
    ]}
  ]
}
